Reference: patent publication US11339383B2, “G proteins” (HEPTARES THERAPEUTICS LIMITED, priority 2016, dated 2022)
Numbering of substitutions follows the chain as printed. In names and notes the source's numbering stands.

B1: Mini Gs399: mini Gs393 with N-terminal residues 6-25 replaced and L272D reversed; binds Gβγ (protein)
chain: MGHHHHHHENLYFQGNSKTEDQRNEEKAQREANKKIEKQLQKDKQVYRATHRLLLLGADNSGKSTIVKQMRILHGGSGGSGGTSGIFETKFQVDKVNFHMFDVGGQRDERRKWIQCFNDVTAIIFVVDSSDYNRLQEALNLFKSIWNNRWLRTISVILFLNKQDLLAEKVLAGKSKIEDYFPEFARYTTPEDATPEPGEDPRVTRAKYFIRDEFLRISTASGDGRHYCYPHFTCAVDTENARRIFNDCRDIIQRMHLRQYELL
modifications: MINI GS399
B2: Mini-Gs/i148: mini-Gs/i1 chimera construct 48; SEQ ID NO:112 (protein)
chain: B1 chain with C248V, R249T, Q253I, R254K, H256N, Q259D, Y260C, E261G, L263F
modifications: Mini-Gs/i148
B3: mini-Gs/o_16: mini-Gs/o1 chimera construct 16; SEQ ID NO:139 (protein)
chain: B1 chain with C248V, R249T, Q253I, R254A, H256N, Q259G, Y260C, E261G, L263Y
modifications: miniGs/o_16
B4: Mini-G128: mini-G protein of G12, construct 8; SEQ ID NO:114 (protein)
chain: MGHHHHHHENLYFQGIDALLARERRAVRRLVKILLLGADNSGKSTFLKQMRIIHGGSGGSGGTKGIVEHDFVIKKIPFKMVDVGGQRSQRQKWFQCFDGITSILFMVDSSDYNRLVESMNDFETIVNNKLFFNVSIILFLNKMDLLVEKVKTVSIKKHFPDFRGDPHRLEDVQRYLVQCFDRKRRNRSKPLFHHFTTAIDTENARFIFHAVKDTILQENLKDIMLQ
modifications: Mini-G128
B5: Mini-Go112: mini-G protein of Go1, construct 12; SEQ ID NO:113 (protein)
chain: MGHHHHHHENLYFQGIEKNLKEDGISAAKDVKLLLLGADNSGKSTIVKQMKIIHGGSGGSGGTTGIVETHFTFKNLHFRLFDVGGQRSERKKWIHCFEDVTAIIFCVDLSDYNRMHESLMDFDSICNNKFFIDTSIILFLNKKDLFGEKIKKSPLTICFPEYTGPNTYEDAAAYIQAQFESKNRSPNKEIYCHMTCATDTNNAQVIFDAVTDIIIANNLRGCGLY
modifications: Mini-Go112
B6: Mini-Gs/q70: mini-Gs with R380K Q384L R385Q H387N Q390E E392N L394V (protein)
chain: GIEKQLQKDKQVYRATHRLLLLGADNSGKSTIVKQMRILHGGSGGSGGTSGIFETKFQVDKVNFHMFDVGGQRDERRKWIQCFNDVTAIIFVVDSSDYNRLQEALNDFKSIWNNRWLRTISVILFLNKQDLLAEKVLAGKSKIEDYFPEFARYTTPEDATPEPGEDPRVTRAKYFIRDEFLRISTASGDGRHYCYPHFTCAVDTENARRIFNDCKDIILQMNLREYNLV
B7: Mini Gs393 (protein)
chain: MGHHHHHHENLYFQGIEKQLQKDKQVYRATHRLLLLGADNSGKSTIVKQMRILHGGSGGSGGTSGIFETKFQVDKVNFHMFDVGGQRDERRKWIQCFNDVTAIIFVVDSSDYNRLQEALNDFKSIWNNRWLRTISVILFLNKQDLLAEKVLAGKSKIEDYFPEFARYTTPEDATPEPGEDPRVTRAKYFIRDEFLRISTASGDGRHYCYPHFTCAVDTENARRIFNDCRDIIQRMHLRQYELL
modifications: N-terminal His tag, TEV site; MINI GS393
B8: Mini-Gs/i143: mini-Gs with 9 α5 helix mutations changing coupling specificity to Gi1; SEQ ID NO:111 (protein)
chain: B7 chain with C228V, R229T, Q233I, R234K, H236N, Q239D, Y240C, E241G, L243F
modifications: Mini-Gs/i143
B9: Mini-Gs/q57: mini-Gs with five C-terminal residues changed to Gαq (Q390E, E392N, L394V) (protein)
chain: B7 chain with Q239E, E241N, L243V
modifications: Mini-Gs/q57
B10: Mini Gs77 (protein)
chain: MGHHHHHHANKKIEKQLQKDKQVYRATHRLLLLGAGESGKSTIVKQMRILHVNGGGDQDALRSRVLTSGIFETKFQVDKVNFHMFDVGGQRDERRKWIQCFNDVTAIIFVVASSSYNMVIREDNQTNRLQEALNLFKSIWNNRWLRTISVILFLNKQDLLAEKVLAGKSKIEDYFPEFARYTTPEDATPEPGEDPRVTRAKYFIRDEFLRISTASGDGRHYCYPHFTCAVDTENIRRVFNDCRDIIQRMHLRQYELL
modifications: MINI GS77
B11: Mini-Golf6: mini-G protein of Golf, 7 point mutations and 3 deletions from mini-Gs; SEQ ID NO:105 (protein)
chain: MGHHHHHHENLYFQGIEKQLQKERLAYKATHRLLLLGADNSGKSTIVKQMRILHGGSGGSGGTSGIFETRFQVDKVNFHMFDVGGQRDERRKWIQCFNDVTAIIYVADCSDYNRLRESLDDFESIWNNRWLRTISIILFLNKQDMLAEKVLAGKSKIEDYFPEYANYTVPEDATPDAGEDPKVTRAKFFIRDLFLRISTATGDGKHYCYPHFTCAVDTENARRIFNDCRDIIQRMHLKQYELL
modifications: Mini-Golf6

What was measured:
β1AR-84 = target: T1, β1AR-84 (Meleagris gallopavo, UniProt P07700, C116L/C358A/D322K/DEL244-271/F327A/F338M/M44C/M90V/V103C); assay type: binding, turkey; settings: membranes
T1 construct: His6 (C); made in house; host or cells: Trichoplusia ni (High Five) insect cells, BaculoGold baculovirus

[1] = Thermostability of GDP-bound mini G proteins by differential scanning fluorimetry (DSF); assay type: physicochemical; settings: mini-G protein alone, GDP-bound
Description: SYPRO-orange (15 μl) was added from a 20× stock solution to give a final concentration of 2×. Samples were mixed and 2×50 μl aliquots (duplicates) were transferred to 0.2 ml PCR tubes (Qiagen). Thermostability measurements were performed using a Rotor-Gene Q (Qiagen). Samples were equilibrated for 90 s at 25° C. before ramping from 25 to 99° C. at 4 s/° C. The melting temperature (Tm), corresponding to the inflection point of the curve, was derived from analysis using the Rotor-Gene Q software. Tm values were calculated as the mean±SEM from three independent experiments.
(§1) For constructs see FIGS. 29 and 35-37. Expression, purification and stability measurements by differential scanning fluorimetry (DSF) of the mini-G proteins as well as the non-lipidated Gβ1γ2 dimer, were performed following the protocols described in Example 1. The stability of mini-G proteins was also determined in detergent using native DSF (NanoTemper Prometheus). Mini-G proteins (2 mg/ml) in 50 mM HEPES pH 7.5 (KOH), 20 mM MgCl2, 50 mM NaCl, 1 μM GDP were mixed with either no detergent (control), 0.1% LMNG or 0.1% DDM. Samples were incubated on ice (minimum 30 min) prior to heating on the Prometheus (20% excitation, 15° C.-85° C., rate of 2.0° C./min) and the onset of scattering determined.

[2] = Stability of mini-G proteins in detergent by native DSF; assay type: physicochemical; settings: 2 mg/ml, onset of scattering
Description: as §1

A2AR = A2AR (Homo sapiens, UniProt P29274, N154A); experiment: Thermostability assay of ^3H-NECA-bound A2AR
Chain of A2AR (P29274 1-317 N154A): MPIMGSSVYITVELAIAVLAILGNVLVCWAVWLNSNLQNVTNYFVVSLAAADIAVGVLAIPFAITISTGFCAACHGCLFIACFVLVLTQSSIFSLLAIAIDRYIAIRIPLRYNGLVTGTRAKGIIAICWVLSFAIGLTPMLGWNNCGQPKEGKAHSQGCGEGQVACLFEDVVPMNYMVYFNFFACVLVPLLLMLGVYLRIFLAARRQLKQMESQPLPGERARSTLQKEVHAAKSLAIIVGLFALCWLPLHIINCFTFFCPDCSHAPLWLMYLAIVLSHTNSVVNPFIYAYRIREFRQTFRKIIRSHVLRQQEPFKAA
Description: The samples were incubated at room temperature for 1 h, then chilled on ice for 30 min. DDM, DM or OG were added to a final concentration of 0.1%, 0.13% or 0.8%, respectively, and samples were incubated on ice for 1 h. Cell debris was removed by centrifugation for 5 min at 20,000×g and the supernatant was aliquoted into PCR strips. Samples were heated to the desired temperature for exactly 30 min, then quenched on ice for 30 min. Samples (50 μl) were loaded onto gel filtration resin packed into a 96-well filter plate (Millipore), which was centrifuged to separate receptor-bound from free radioligand. […] Data were analyzed by nonlinear regression using GraphPad Prism software. Apparent Tm values were derived from sigmoidal dose-response analysis. Results represent the mean±SEM of two independent experiments, performed in duplicate.
Samples were heated to the desired temperature for exactly 30 min, then quenched on ice for 30 min. Samples (50 μl) were loaded onto gel-filtration resin (Toyopearl HW-40F) packed into a 96-well filter plate (Millipore), which was centrifuged to separate receptor-bound from free radioligand [28]. […] Data were analysed by nonlinear regression using GraphPad Prism software. Apparent Tm values were derived from sigmoidal dose-response analysis performed by non-liner regression. Results represent the mean±SEM of two independent experiments, performed in duplicate.

T1 sequence (P07700 other isoform, or with tags, fused parts or gaps M44C/M90V/V103C/C116L/DEL244-271/D322K/F327A/F338M/C358A): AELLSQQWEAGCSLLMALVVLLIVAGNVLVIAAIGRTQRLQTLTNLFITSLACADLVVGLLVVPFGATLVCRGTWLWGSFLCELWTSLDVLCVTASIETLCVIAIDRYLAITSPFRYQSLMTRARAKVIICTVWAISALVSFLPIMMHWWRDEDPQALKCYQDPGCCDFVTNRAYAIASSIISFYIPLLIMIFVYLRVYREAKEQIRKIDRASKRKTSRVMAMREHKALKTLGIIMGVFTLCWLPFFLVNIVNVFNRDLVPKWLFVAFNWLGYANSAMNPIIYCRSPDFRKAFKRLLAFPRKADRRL

| Molecule | Stability measured by DSF [1] [°C] | Stability in detergent measured by native DSF, 0.1% DDM [2] [°C] | Stability in detergent measured by native DSF, 0.1% LMNG [2] [°C] | Stability in detergent measured by native DSF, No detergent [2] [°C] | other results |
| --- | --- | --- | --- | --- | --- |
| Gs: non-lipidated Gs (Gαsβ1γ2) heterotrimer [reference compound] | – | – | – | – | shift of isoprenaline Ki of β1AR-84 in response to binding partner, 20° C. (β1AR-84; relative to uncoupled […]): 9.6 fold |
| B1 | 71.6 ± 0.0 | – | – | – | – |
| B2 | 72.1 ± 0.1 | – | – | – | – |
| B3 | 69.0 ± 0.1 | – | – | – | – |
| B4 | 73 | 41.2 ± 0.2 | 46.0 ± 0.1 | 50.3 ± 0.1 | Stability measured by DSF ([1]; listed as Gl2 8): 72.6 ± 0.3 °C |
| B5 | – | 32.6 ± 0.2 | 40.7 ± 0.1 | 43.6 ± 0.2 | Stability measured by DSF ([1]; listed as Go1 12): 63.8 ± 0.1 °C; Stability measured by DSF ([1]; listed as mini-Go1): 64 °C |
| B6 | 67.2 ± 0.4 | 36.2 ± 0.1 | 44.2 ± 0.2 | 47.2 ± 0.3 | coupling of mini-Gs/q chimera to A2AR (thermostability assay and SEC) (A2AR): no binding |
| B7 | 65.3 ± 0.0 | 39.1 ± 0.0 | 44.9 ± 0.2 | 47.7 ± 0.2 | GTP-mediated dissociation of β1AR-84 complexes (β1AR-84; 0.25 mM GTPγS): completely resistant |
| B8 | 69.0 ± 0.1 | 35.9 ± 0.1 | 41.1 ± 0.1 | 44.8 ± 0.0 | – |
| B9 | – | – | – | – | coupling of mini-Gs/q chimera to A2AR (thermostability assay and SEC) (A2AR): still observed |
| B10 | – | – | – | – | shift of isoprenaline Ki of β1AR-84 in response to binding partner, 4° C. (β1AR-84; relative to uncoupled […]): 21 fold |
| B11 | – | 37.4 ± 0.2 | 41.9 ± 0.0 | 44.3 ± 0.1 | Stability measured by DSF ([1]; listed as Golf 6): 64.8 ± 0.4 °C; Stability measured by DSF ([1]; listed as mini-Golf): 65 °C |
